Reference: paper PMC2756588

T1: Bud14, P27637
T1 sequence (P27637 247-328, looked up): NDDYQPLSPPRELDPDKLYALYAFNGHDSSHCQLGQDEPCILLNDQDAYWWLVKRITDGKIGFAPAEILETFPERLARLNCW

T2: Bzz1-1, P38822
T2 sequence (P38822 478-572, looked up): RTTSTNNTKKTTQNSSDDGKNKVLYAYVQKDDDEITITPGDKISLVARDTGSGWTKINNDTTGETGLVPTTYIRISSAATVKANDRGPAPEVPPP

T3: Bbc1, P47068
T3 sequence (P47068 1-78, looked up): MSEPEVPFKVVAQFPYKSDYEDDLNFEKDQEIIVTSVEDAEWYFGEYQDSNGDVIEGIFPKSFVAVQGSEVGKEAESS

T4: Fus1, P11710
T4 sequence (P11710 432-512, looked up): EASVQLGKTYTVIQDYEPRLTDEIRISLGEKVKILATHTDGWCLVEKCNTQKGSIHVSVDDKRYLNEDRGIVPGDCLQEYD

T5: Lsb1, P53281
T5 sequence (P53281 45-122, looked up): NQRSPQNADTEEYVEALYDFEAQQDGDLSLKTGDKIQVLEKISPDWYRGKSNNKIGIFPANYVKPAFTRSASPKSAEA

T6: Cyk3, Q07533
T6 sequence (Q07533 1-83, looked up): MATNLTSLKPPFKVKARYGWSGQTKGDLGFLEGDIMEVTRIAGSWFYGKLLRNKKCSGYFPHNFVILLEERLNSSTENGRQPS

T7: Lsb4, P32793
T7 sequence (P32793 402-468, looked up): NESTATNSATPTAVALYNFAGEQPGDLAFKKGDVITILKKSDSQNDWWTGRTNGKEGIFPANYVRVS

T8: Bzz1-2, P38822
T8 sequence (P38822 568-633, looked up): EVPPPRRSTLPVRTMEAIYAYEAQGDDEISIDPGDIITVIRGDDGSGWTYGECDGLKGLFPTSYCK

T9: Nbp2, Q12163
T9 sequence (Q12163 103-180, looked up): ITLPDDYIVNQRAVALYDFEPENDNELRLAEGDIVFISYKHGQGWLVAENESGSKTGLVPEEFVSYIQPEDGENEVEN

T10: Pin3, Q06449
T10 sequence (Q06449 53-122, looked up): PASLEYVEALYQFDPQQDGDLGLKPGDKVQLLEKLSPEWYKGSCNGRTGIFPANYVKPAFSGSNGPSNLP

T11: Abp1, P15891
T11 sequence (P15891 535-592, looked up): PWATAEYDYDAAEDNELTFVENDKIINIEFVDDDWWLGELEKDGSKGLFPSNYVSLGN

T12: Boi1, P38041
T12 sequence (P38041 1-86, looked up): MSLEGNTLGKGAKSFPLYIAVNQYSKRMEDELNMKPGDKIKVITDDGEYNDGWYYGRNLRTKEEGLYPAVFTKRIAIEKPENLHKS

T13: Cdc25, P04821
T13 sequence (P04821 50-136, looked up): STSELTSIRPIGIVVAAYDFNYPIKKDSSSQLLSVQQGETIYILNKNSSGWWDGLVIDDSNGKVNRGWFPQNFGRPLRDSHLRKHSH

T14: Boi2, P39969
T14 sequence (P39969 32-116, looked up): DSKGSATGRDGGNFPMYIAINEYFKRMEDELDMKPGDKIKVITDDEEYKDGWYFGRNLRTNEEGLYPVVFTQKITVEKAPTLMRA

T15: Myo5, Q04439
T15 sequence (Q04439 1072-1160, looked up): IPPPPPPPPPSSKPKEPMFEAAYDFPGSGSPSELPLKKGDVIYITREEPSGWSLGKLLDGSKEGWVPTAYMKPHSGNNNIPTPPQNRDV

T16: Sla1-3, P32790
T16 sequence (P32790 344-424, looked up): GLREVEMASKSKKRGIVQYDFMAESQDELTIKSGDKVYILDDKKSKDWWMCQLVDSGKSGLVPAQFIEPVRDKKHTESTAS

T17: Lsb3, P43603
T17 sequence (P43603 385-451, looked up): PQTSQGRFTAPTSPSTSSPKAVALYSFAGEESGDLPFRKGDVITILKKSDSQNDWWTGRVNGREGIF

T18: Sla1-2, P32790
T18 sequence (P32790 60-140, looked up): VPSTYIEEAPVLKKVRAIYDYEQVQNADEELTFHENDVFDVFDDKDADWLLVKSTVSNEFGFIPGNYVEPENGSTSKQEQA

T19: Hof1, Q05080
T19 sequence (Q05080 590-669, looked up): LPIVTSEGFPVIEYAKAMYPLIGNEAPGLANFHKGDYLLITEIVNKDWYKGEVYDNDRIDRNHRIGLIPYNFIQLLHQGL

T20: Hse1, P38753
T20 sequence (P38753 208-285, looked up): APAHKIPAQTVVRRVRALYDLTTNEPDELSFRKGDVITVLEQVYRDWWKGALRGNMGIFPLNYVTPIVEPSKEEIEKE

T21: Pex13, P80667
T21 sequence (P80667 295-386, looked up): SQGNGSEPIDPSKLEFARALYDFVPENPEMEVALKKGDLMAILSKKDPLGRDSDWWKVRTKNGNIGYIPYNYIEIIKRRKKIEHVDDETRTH


Key:
Assay in all cases: SPOT array
Bud14, P27637 = biological target: T1, Bud14, P27637; conditions: median of control spots 956
Bzz1-1, P38822 = biological target: T2, Bzz1-1, P38822; conditions: median of control spots 4446
Bbc1, P47068 = biological target: T3, Bbc1, P47068; conditions: median of control spots 796
Fus1, P11710 = biological target: T4, Fus1, P11710; conditions: median of control spots 1200
Lsb1, P53281 = biological target: T5, Lsb1, P53281; conditions: median of control spots 388
Cyk3, Q07533 = biological target: T6, Cyk3, Q07533; conditions: median of control spots 1451
Lsb4, P32793 = biological target: T7, Lsb4, P32793; conditions: median of control spots 397
Bzz1-2, P38822 = biological target: T8, Bzz1-2, P38822; conditions: median of control spots 4538
Nbp2, Q12163 = biological target: T9, Nbp2, Q12163; conditions: median of control spots 357
Bem1-2, P29366 = conditions: median of control spots 4347
Sequence of Bem1-2, P29366 (P29366 139-227): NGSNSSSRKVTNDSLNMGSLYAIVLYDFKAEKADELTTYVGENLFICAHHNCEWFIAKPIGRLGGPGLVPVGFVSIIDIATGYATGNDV

Pin3, Q06449 = biological target: T10, Pin3, Q06449; conditions: median of control spots 2171
GST = conditions: median of control spots 978
Abp1, P15891 = biological target: T11, Abp1, P15891; conditions: median of control spots 935
Boi1, P38041 = biological target: T12, Boi1, P38041; conditions: median of control spots 1162
Bem1-1, P29366 = conditions: median of control spots 4282
Sequence of Bem1-1, P29366 (P29366 55-141): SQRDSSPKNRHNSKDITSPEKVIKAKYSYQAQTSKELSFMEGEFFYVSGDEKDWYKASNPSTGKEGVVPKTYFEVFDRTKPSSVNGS

Cdc25, P04821 = biological target: T13, Cdc25, P04821; conditions: median of control spots 969
Myo3, P36006 = conditions: median of control spots 468
Boi2, P39969 = biological target: T14, Boi2, P39969; conditions: median of control spots 1161
Rvs167, P39743 = conditions: median of control spots 2707
Sequence of Rvs167, P39743 (P39743 419-482): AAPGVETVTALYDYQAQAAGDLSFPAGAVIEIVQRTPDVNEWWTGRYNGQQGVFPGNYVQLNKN

Myo5, Q04439 = biological target: T15, Myo5, Q04439; conditions: median of control spots 471
Sla1-3, P32790 = biological target: T16, Sla1-3, P32790; conditions: median of control spots 5475
Lsb3, P43603 = biological target: T17, Lsb3, P43603; conditions: median of control spots 406
Sho1, P40073 = conditions: median of control spots 1148
Sequence of Sho1, P40073 (P40073 287-367): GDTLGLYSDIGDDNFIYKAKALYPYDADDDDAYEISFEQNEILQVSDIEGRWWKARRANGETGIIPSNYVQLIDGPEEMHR

Sla1-2, P32790 = biological target: T18, Sla1-2, P32790; conditions: median of control spots 712
Hof1, Q05080 = biological target: T19, Hof1, Q05080; conditions: median of control spots 4086
Hse1, P38753 = biological target: T20, Hse1, P38753; conditions: median of control spots 1727
Pex13, P80667 = biological target: T21, Pex13, P80667; conditions: median of control spots 1341

SPOT intensity (Bud14, P27637) | SPOT intensity (Bzz1-1, P38822) | SPOT intensity (Bbc1, P47068) | SPOT intensity (Fus1, P11710) | SPOT intensity (Lsb1, P53281) | SPOT intensity (Cyk3, Q07533) | SPOT intensity (Lsb4, P32793) | SPOT intensity (Bzz1-2, P38822) | SPOT intensity (Nbp2, Q12163) | SPOT intensity (Bem1-2, P29366) | SPOT intensity (Pin3, Q06449) | SPOT intensity (GST) | SPOT intensity (Abp1, P15891) | SPOT intensity (Boi1, P38041) | SPOT intensity (Bem1-1, P29366) | SPOT intensity (Cdc25, P04821) | SPOT intensity (Myo3, P36006) | SPOT intensity (Boi2, P39969) | SPOT intensity (Rvs167, P39743) | SPOT intensity (Myo5, Q04439) | Binder | also measured
0 | 0 | 0 | 0 | 174 | 0 | 278 | 2 | 0 | 0 | 4 | 0 | 6 | 0 | 0 | 0 | 7 | 1 | 1460 | 27 | MAMRPIPPLPTESEY | SPOT intensity (Sla1-3, P32790): 0; SPOT intensity (Lsb3, P43603): 131; SPOT intensity (Sho1, P40073): 30; SPOT intensity (Sla1-2, P32790): 0; SPOT intensity (Hof1, Q05080): 1560; SPOT intensity (Hse1, P38753): 0; SPOT intensity (Pex13, P80667): 235
1 | 0 | 0 | 0 | 8 | 0 | 598 | 0 | 0 | 12 | 0 | 0 | 0 | 0 | 0 | 0 | 0 | 1 | 15 | 0 | YLTRPLPSTPNEDSR | SPOT intensity (Sla1-3, P32790): 1; SPOT intensity (Lsb3, P43603): 139; SPOT intensity (Sho1, P40073): 1320; SPOT intensity (Sla1-2, P32790): 0; SPOT intensity (Hof1, Q05080): 0; SPOT intensity (Hse1, P38753): 6; SPOT intensity (Pex13, P80667): 297
3 | 1 | 1070 | 0 | 824 | 1 | 317 | 1 | 0 | 13 | 25 | 0 | 156 | 0 | 0 | 10 | 0 | 2 | 129 | 0 | EVTPKVPERPSRRKT | SPOT intensity (Sla1-3, P32790): 15; SPOT intensity (Lsb3, P43603): 271; SPOT intensity (Sho1, P40073): 23; SPOT intensity (Sla1-2, P32790): 0; SPOT intensity (Hof1, Q05080): 28; SPOT intensity (Hse1, P38753): 245; SPOT intensity (Pex13, P80667): 171
0 | 2 | 0 | 0 | 461 | 0 | 642 | 0 | 0 | 0 | 0 | 1 | 0 | 4 | 0 | 0 | 0 | 0 | 3320 | 0 | ANNQGPPNLPARDKS | SPOT intensity (Sla1-3, P32790): 0; SPOT intensity (Lsb3, P43603): 478; SPOT intensity (Sho1, P40073): 0; SPOT intensity (Sla1-2, P32790): 1; SPOT intensity (Hof1, Q05080): 0; SPOT intensity (Hse1, P38753): 0; SPOT intensity (Pex13, P80667): 229
0 | 0 | 0 | 1 | 456 | 1 | 356 | 0 | 0 | 0 | 66 | 0 | 25 | 2 | 0 | 0 | 97 | 0 | 2940 | 45 | TPTSGPPLLPPRNTM | SPOT intensity (Sla1-3, P32790): 0; SPOT intensity (Lsb3, P43603): 345; SPOT intensity (Sho1, P40073): 21; SPOT intensity (Sla1-2, P32790): 1; SPOT intensity (Hof1, Q05080): 3; SPOT intensity (Hse1, P38753): 4; SPOT intensity (Pex13, P80667): 813
0 | 2 | 0 | 0 | 1380 | 2 | 813 | 0 | 0 | 0 | 5 | 0 | 0 | 0 | 2 | 0 | 112 | 0 | 5720 | 59 | VAPPPLPNRQLPNLD | SPOT intensity (Sla1-3, P32790): 0; SPOT intensity (Lsb3, P43603): 743; SPOT intensity (Sho1, P40073): 0; SPOT intensity (Sla1-2, P32790): 0; SPOT intensity (Hof1, Q05080): 1330; SPOT intensity (Hse1, P38753): 0; SPOT intensity (Pex13, P80667): 563
